According to PMC6778850, “The flavin mononucleotide cofactor in α-hydroxyacid oxidases exerts its electrophilic/nucleophilic duality in control of the substrate-oxidation level” (Acta Crystallographica. Section D, Structural Biology, 2019):
Numbering of substitutions follows the chain as printed. In names and notes the source's numbering stands.

Target: the molecule itself
Test: SEC; analytical gel filtration on a Superdex 200 16/20 column; 5-deaza-FMN-reconstituted protein after the refolding process; self-association (tetramer)

B1: p-hydroxymandelate oxidase (Hmo), 5-deaza-FMN-containing (enzyme, Amycolatopsis orientalis)
chain: MTYVSLADLERAARDVLPGEIFDFLAGGSGTEASLVANRTALERVFVIPRMLRDLTDVTTEIDIFGRRAALPMAVAPVAYQRLFHPEGELAVARAARDAGVPYTICTLSSVSLEEIAAVGGRPWFQLYWLRDEKRSLDLVRRAEDAGCEAIVFTVDVPWMGRRLRDMRNGFALPEWVTAANFDAGTAAHRRTQGVSAVADHTAREFAPATWESVEAVRAHTDLPVVLKGILAVEDARRAVDAGAGGIVVSNHGGRQLDGAVPGIEMLGEIVAAVSGGCEVLVDGGIRSGGDVLKATALGASAVLVGRPVMWALAAAGQDGVRQLLELLAEEVRDAMGLAGCESVGAARRLNTKLGVV
notes: p-hydroxymandelate oxidase (Hmo), product of the hmo gene (orf22) amplified from Amycolatopsis orientalis genomic DNA, cloned in pET-28a(+); no removal of the His6 tag is described; also called 5-deaza-Hmo; wild-type Hmo; source: E. coli BL21(DE3), purified (Ni-NTA, gel filtration); deflavinated and reconstituted with 5-deaza-FMN on an Ni-NTA column
  stoichiometry N: 4

B2: p-hydroxymandelate oxidase (Hmo) Y128F mutant, 5-deaza-FMN-containing (enzyme, Amycolatopsis orientalis)
chain: B1 chain with Y128F
notes: p-hydroxymandelate oxidase (Hmo), product of the hmo gene (orf22) of Amycolatopsis orientalis, point mutant Y128F made with QuikChange; no removal of the His6 tag is described; source: E. coli BL21(DE3), purified (same protocol as wild-type Hmo); deflavinated and reconstituted with 5-deaza-FMN on an Ni-NTA column
  stoichiometry N: 4
